In patent US20080227698A1, “OLIGOPEPTIDES FOR TREATMENT OF OSTEOPOROSIS AND OTHER BONE DISEASES AND METHODS THEREOF” (Washington University, priority 2005, published 2008):

Tests used:
LRP6 [1] = test: ^125I-Mesd cell surface ligand binding to LRP6-transduced HT1080 cells; parameters: species or system human; settings: HT1080 cells transduced with vector alone, ^125I-Mesd 5 nM, 4° C.
Method: (§1) To examine whether Mesd binds with high affinity to […] at the cell surface, cell surface ligand binding experiments were performed with cells stably transduced with LRP6 cDNA. Human HT1080 cells, which express undetectable levels of LRP6, were transduced with a viral vector alone (pLNCX2) or with vector containing LRP6 cDNA (Li, Y., Oncogene 23: 9129-9135, 2004) and used for ^125I-Mesd binding (FIG. 1A). ^125I-Mesd (5 nM) reached maximal binding after 2 hours incubation at 4° C. with LRP6-expressing HT1080 cells (FIG. 1A).
(§2) (A) Time course of ^125I-Mesd (5 nM) binding to LRP6-transduced HT1080 cells and the control cells. Assay was carried out for the indicated periods at 4° C. in the absence (total) or presence of 500 nM Mesd (non-specific). (B) Saturation binding of ^125I-Mesd to LRP6-transduced HT1080 cells and the control cells. Assay was carried out at indicated concentrations for 3 hours at 4° C. in the absence (total) or presence (non-specific) of 500 nM Mesd. (C) Scatchard plots of data in B. All values are the average of triple determinations with the s.d. indicated by error bars.
Cells (2×10^5) were seeded into 12-well dishes 1 day prior to assay. […] Thereafter, overlying buffer containing unbound ligand was removed, and cell monolayers were washed and lysed in low-SDS lysis buffer (62.5 mM Tris-HCl pH 6.8, 0.2% SDS, 10% v/glycerol) and counted.

Wnt signaling = test: Wnt signalling TCF/LEF-Luc assay in HEK293 cells (Wnt3A conditioned medium plus Dkk1); type: cell-based; settings: Wnt3A conditioned medium plus Dkk1 protein at 10 nM
Method: HEK293 cells were plated into six-well plates. For each well, […] of the TOP-[…] luciferase construct (Upstate Biotechnology) was cotransfected with 0.8 μg Mesd-expressing vector, 0.8 μg Mesd mutant-expressing vector, or empty vector. A β-galactosidase-expressing vector (Promega, Madison, Wis.) was included as an internal control for transfection efficiency. After 48 hours, cells were lysed and both luciferase and β-galactosidase activities were determined with enzyme assay kits (Promega). The luciferase activity was determined with a luminometer using the Dual Luciferase Assay system (Promega). Luciferase activity was normalized to the activity of the P-galactosidase.

LRP6 [2] = molecular target: T1, LRP6 (Homo sapiens, UniProt O75581); test: ^125I-Mesd cell surface ligand binding to LRP6-transduced HT1080 cells; parameters: plasmid pCS-Myc-hLRP6 containing the full-length human LRP6 cDNA; HA; expressed in transfected cells; host or cells: human HT1080 cells, stably transduced (pLNCX2 retroviral vector)
T1 sequence (O75581 20-1613): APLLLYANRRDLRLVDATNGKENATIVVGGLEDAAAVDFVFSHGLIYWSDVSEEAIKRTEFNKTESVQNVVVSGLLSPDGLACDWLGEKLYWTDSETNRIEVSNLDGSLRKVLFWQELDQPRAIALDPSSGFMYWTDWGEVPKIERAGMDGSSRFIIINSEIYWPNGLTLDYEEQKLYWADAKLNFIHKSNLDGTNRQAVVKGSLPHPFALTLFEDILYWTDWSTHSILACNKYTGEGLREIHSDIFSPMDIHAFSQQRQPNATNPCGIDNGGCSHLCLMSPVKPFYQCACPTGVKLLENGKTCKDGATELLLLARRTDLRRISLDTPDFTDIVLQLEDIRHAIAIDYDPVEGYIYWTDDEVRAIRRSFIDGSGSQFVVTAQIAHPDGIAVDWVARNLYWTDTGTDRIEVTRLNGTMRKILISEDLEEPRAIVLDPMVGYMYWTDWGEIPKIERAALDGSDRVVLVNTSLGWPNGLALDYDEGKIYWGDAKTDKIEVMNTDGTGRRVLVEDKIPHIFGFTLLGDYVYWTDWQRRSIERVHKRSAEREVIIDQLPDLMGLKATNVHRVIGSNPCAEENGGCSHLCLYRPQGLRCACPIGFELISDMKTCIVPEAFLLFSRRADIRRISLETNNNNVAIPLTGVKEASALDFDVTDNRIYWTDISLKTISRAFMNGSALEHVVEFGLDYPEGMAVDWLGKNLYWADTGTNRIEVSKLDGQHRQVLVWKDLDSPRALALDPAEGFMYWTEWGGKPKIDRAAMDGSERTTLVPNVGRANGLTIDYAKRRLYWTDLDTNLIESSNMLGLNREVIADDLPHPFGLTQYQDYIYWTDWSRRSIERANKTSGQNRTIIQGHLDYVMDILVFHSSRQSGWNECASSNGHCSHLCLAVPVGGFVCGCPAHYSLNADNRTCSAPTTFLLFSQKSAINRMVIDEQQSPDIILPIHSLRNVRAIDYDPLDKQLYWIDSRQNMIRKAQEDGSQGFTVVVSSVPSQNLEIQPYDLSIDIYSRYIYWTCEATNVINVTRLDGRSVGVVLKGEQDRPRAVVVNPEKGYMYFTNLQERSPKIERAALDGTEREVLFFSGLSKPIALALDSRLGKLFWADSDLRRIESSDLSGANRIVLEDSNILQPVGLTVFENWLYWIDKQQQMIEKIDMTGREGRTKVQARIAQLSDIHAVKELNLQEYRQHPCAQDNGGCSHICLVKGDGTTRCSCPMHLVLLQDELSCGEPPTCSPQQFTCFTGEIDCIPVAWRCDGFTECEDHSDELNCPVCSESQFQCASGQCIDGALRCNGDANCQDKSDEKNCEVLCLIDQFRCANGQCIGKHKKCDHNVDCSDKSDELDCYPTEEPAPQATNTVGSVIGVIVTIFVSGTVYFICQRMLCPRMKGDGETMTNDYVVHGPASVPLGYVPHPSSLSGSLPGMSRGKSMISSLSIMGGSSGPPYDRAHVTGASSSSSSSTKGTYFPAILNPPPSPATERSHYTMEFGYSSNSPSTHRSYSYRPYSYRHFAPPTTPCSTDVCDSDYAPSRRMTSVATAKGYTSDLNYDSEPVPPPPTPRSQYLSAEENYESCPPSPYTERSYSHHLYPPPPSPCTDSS
Method: as §1, §2
Cells (2×10^5) were seeded into 12-well dishes 1 day prior to assay. Ligand-binding buffer (minimal Eagle's medium containing 0.6% BSA with a different concentration of radioligand, 0.6 ml/well) was added to cell monolayers, in the absence or the presence of 500 nM unlabeled RAP or 500 nM unlabeled Mesd, followed with incubation for 0-4 hours at 4° C. Thereafter, overlying buffer containing unbound ligand was removed, and cell monolayers were washed and lysed in low-SDS lysis buffer (62.5 mM Tris-HCl pH 6.8, 0.2% SDS, 10% v/glycerol) and counted.

LRP6 [3] = molecular target: T1, LRP6; test: Cell surface Myc-DKK1 binding and immunodetection on LRP6-transduced HT1080 cells; parameters: plasmid pCS-Myc-hLRP6 containing the full-length human LRP6 cDNA; HA; expressed in transfected cells; host or cells: human HT1080 cells, stably transduced (pLNCX2 retroviral vector); settings: 1 μM Mesd, room temperature 60 minutes, immunofluorescence
Text: Values are the means of triple determinations with the s.d. indicated by error bars. Bar, 10 μm.

Inhibition of ^125I-Mesd binding to cell surface LRP6 (LRP6 [2]; 500 nM unlabeled competitor, ^125I-Mesd 5 nM, 2 hours at 4° C.): > 90% | Concentration at which Mesd specific binding saturates (LRP6 [2]; LRP6-transduced HT1080 cells, 3 hours at 4° C.): > 6.4 nM | ^125I-Mesd binding level (LRP6 [2]; ^125I-Mesd 5 nM, 4 hours at 4° C., LRP6-transduced HT1080 cells): 1320 fmoles/mg cell protein | Effect of excess unlabeled Mesd on ^125I-Mesd binding (LRP6 [2]; unlabeled Mesd 500 nM, ^125I-Mesd 5 nM, 4° C.): completely eliminated this binding | Effect on binding of Myc-DKK1 to LRP6 at the cell surface (LRP6 [3]): completely blocked
B1: Mesd: recombinant wild-type mouse Mesd, polyhistidine tail at the N-terminus, lacks the signal peptide, expressed in E. coli (protein)
chain: ADTPGEATPPPRKKKDIRDYNDADMARLLEQWEKDDDIEEGDLPEHKRPSAPIDFSKLDPGKPESILKMTKKGKTLMMFVTVSGNPTEKETEEITSLWQGSLFNANYDVQRFIVGSDRAIFMLRDGSYAWEIKDFLVSQDRCAEVTLEGQMYPGKGGGSKEKNKTKPEKAKKKEGDRKPRASKEDNRAGSRREDL
modifications: left off: small tags and cut ends
notes: recombinant wild-type mouse Mesd, polyhistidine tail at the N-terminus, lacks the signal peptide, expressed in E. coli
^125I-Mesd binding to control cells (pLNCX2) (LRP6 [1]): No significant ^125I-Mesd binding | Restoring of Wnt signaling inhibited by Dkk1 (luciferase activity) (Wnt signaling): at least partially restoring Wnt signaling
